Experimental data as given in patent publication US7427671 (US Dept. of Health and Human Services, dated 2008).

Target: T1, human type α platelet derived growth factor receptor (T11 gene product) (human, UniProt P16234 24-1089)
T1 construct: In western blots and immunoprecipitations it came from cell lysates; also called type α PDGF-R; α PDGFR
Assay: Scatchard analysis of PDGF-BB binding to 32D-αR transfectants

T1 sequence (P16234 24-1089): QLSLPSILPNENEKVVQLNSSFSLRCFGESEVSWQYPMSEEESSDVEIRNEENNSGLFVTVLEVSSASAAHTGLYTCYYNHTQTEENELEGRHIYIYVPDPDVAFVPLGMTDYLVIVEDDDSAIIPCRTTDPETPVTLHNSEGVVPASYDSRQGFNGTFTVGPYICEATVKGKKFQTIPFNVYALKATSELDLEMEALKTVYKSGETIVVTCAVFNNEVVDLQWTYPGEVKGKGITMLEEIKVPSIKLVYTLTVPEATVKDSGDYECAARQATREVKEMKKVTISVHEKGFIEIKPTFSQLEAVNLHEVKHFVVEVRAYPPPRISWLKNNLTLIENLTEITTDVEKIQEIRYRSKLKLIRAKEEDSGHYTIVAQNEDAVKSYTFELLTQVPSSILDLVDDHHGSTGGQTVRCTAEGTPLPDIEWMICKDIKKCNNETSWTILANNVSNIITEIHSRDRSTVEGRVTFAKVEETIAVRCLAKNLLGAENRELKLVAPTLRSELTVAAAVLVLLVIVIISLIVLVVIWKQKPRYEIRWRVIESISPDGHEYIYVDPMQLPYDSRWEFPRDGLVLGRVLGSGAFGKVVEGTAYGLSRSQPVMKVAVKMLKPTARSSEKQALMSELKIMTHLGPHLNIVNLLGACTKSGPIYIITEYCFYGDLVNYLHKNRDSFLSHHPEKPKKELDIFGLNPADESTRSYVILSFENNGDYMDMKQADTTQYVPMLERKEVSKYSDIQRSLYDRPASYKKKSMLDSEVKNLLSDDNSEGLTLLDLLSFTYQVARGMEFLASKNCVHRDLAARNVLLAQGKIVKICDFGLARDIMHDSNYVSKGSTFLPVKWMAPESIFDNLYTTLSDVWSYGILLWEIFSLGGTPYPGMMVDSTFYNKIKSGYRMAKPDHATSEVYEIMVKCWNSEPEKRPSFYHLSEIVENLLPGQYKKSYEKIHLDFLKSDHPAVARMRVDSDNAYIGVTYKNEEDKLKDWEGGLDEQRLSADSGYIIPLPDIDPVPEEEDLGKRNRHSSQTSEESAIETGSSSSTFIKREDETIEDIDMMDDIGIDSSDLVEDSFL

B1: recombinant PDGF-BB (ligand, UniProt P01127 82-190, looked up)
chain: SLGSLTIAEPAMIAECKTRTEVFEISRRLIDRTNANFLVWPPCVEVQRCSGCCNNRNVQCRPTQVQLRPVQVRKIEIVRKKPIFKKATVTLEDHLACKCETVAAARPVT
notes: Homodimer of B chains; also called BB homodimer
- Kd: 400 pM
